Results as given in patent US20250326861A1 (REGENXBIO, published 2025).

Molecular target: Activated human plasma kallikrein (Enzyme Research Laboratories) (human, UniProt P03952 20-638)
Experiment: cell-based or functional assay

Sequence of Activated human plasma kallikrein (Enzyme Research Laboratories) (P03952 20-638 limits assumed): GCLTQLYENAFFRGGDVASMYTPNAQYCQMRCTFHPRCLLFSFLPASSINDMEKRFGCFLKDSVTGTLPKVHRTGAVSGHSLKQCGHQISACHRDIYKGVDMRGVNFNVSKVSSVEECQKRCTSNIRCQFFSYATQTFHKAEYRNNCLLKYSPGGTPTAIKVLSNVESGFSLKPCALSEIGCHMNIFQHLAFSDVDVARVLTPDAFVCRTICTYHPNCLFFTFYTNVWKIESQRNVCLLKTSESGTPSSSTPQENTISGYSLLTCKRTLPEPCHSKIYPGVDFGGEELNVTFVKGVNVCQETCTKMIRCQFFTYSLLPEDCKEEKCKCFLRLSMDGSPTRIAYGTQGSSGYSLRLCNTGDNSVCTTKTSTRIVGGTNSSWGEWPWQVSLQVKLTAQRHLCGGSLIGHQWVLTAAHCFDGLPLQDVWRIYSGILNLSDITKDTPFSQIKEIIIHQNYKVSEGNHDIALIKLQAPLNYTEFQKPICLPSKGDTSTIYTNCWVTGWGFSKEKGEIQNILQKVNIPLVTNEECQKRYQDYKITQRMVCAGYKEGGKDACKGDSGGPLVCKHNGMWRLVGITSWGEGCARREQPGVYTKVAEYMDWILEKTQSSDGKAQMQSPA

B1: Lanadelumab (full length anti-pKal antibody) (antibody, IgG1, V domains shown)
VH: EVQLLESGGGLVQPGGSLRLSCAASGFTFSHYIMMWVRQAPGKGLEWVSGIYSSGGITVYADSVKGRFTISRDNSKNTLYLQMNSLRAEDTAVYYCAYRRIGVPRRDEFDIWGQGTMVTVSS
VL: DIQMTQSPSTLSASVGDRVTITCRASQSISSWLAWYQQKPGKAPKLLIYKASTLESGVPSRFSGSGSGTEFTLTISSLQPDDFATYYCQQYNTYWTFGQGTKVEIK
  IC50 (read off the curve), 6.25 nM pKal: ~2 nM
  IC50 (read off the curve), 12.5 nM pKal: ~4 nM
